Residue numbers refer to the chain shown, from its start.

B1: VH1_40Phe:VL3_Leu44 (antibody, V domains shown)
VH: QVQLQESGPGLVKPSQTLSLTCTVSGDSFTNDYYWNWIRQFPGKGLEWIGHIGYGGNINYNPSLKNRLSMSRDTSKNQFSLKLSSVTAADTAVYYCTRESFYDGYPFDYWGQGTLVTVSS
VL: DIQMTQSPSSLSASVGDRVTITCRASQDIRNYLNWYQQKPGKALKLLLYYTSRLHSGVPSRFSGSGSGTDYTLTISSLQPEDFATYYCQQGNSLPRTFGGGTKVEIK
notes: also called Phe40/Leu44; VH1_H40Phe VL3_L44Leu
B2: 6B12, mouse monoclonal IgG1 anti-S100A4 antibody (antibody, V domains shown)
VH: DVQLQESGPGLVKPSQSLSLTCSVTGDSFTNDYYWNWIRQFPGSKLEWMGHIGYGGNINYNPSLKNRISITRDTSKNQFFLRLTSVTTEDTATYYCTRESFYDGYPFDYWGQGTLVTVSA
VL: DIQMTQTTSSLSASLGDRVTISCRASQDIRNYLNWYQQRPGGTLKLLIYYTSRLHSGVPSRFSGSGSGTDYSLTISNLEQEDIATYFCQQGNSLPRTFGGGTKLEIK
notes: Mouse IgG1; also called 6B12 mIgG1; 6B12 IgG1
B3: AX-202, a humanized IgG4 monoclonal anti-S100A4 antibody (antibody)
heavy: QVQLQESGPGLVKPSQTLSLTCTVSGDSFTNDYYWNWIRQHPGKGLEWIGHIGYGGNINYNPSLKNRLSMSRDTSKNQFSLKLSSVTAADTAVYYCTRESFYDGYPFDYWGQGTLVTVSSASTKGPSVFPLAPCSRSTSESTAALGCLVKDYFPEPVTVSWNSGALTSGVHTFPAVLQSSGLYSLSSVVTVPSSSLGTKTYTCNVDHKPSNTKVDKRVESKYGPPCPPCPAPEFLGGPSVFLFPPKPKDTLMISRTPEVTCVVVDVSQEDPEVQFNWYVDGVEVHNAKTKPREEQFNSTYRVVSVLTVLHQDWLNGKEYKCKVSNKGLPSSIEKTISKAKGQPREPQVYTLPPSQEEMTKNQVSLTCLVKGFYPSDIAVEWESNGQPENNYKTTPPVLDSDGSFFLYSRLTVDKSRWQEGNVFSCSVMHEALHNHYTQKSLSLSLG
light: DIQMTQSPSSLSASVGDRVTITCRASQDIRNYLNWYQQKPGKALKLLLYYTSRLHSGVPSRFSGSGSGTDYTLTISSLQPEDFATYYCQQGNSLPRTFGGGTKVEIKRTVAAPSVFIFPPSDEQLKSGTASVVCLLNNFYPREAKVQWKVDNALQSGNSQESVTEQDSKDSTYSLSSTLTLSKADYEKHKVYACEVTHQGLSSPVTKSFNRGEC
B4: VH1 VL3_L44Leu (antibody, V domains shown)
VH: B1 VH with F41H
VL: B1 VL
notes: Humanized antibody; also called VH1:VL3_Leu44; Leu44
B5: VH1_H40Phe VL3 (antibody, V domains shown)
VH: B1 VH
VL: B1 VL with L44P
notes: Humanized antibody; also called VH1_40Phe:VL3; Phe40
B6: VH0 VL3 (antibody, V domains shown)
VH: B2 VH
VL: B1 VL with L44P
B7: VH0 VL0: the VH and VL regions of 6B12 comprised in a humanized IgG4 isotype framework (antibody, V domains shown)
VH: B2 VH
VL: B2 VL
B8: VH1 VL0 (antibody, V domains shown)
VH: B1 VH with F41H
VL: B2 VL
B9: VH1 VL3 (antibody, V domains shown)
VH: B1 VH with F41H
VL: B1 VL with L44P
notes: Humanized antibody
B10: VH1_H43Ser VL3_L44Leu (antibody, V domains shown)
VH: B1 VH with F41H, K44S
VL: B1 VL
B11: VH1_H43Ser + H44Lys VL3_L44Leu (antibody, V domains shown)
VH: B1 VH with F41H, K44S, G45K
VL: B1 VL
B12: VH1_H40Phe + H44Lys VL3 (antibody, V domains shown)
VH: B1 VH with G45K
VL: B1 VL with L44P
B13: VH1_H44Lys VL3 (antibody, V domains shown)
VH: B1 VH with F41H, G45K
VL: B1 VL with L44P
B14: VH1_H43Ser + H44Lys VL3 (antibody, V domains shown)
VH: B1 VH with F41H, K44S, G45K
VL: B1 VL with L44P
B15: VH1 VL3_L43Thr (antibody, V domains shown)
VH: B1 VH with F41H
VL: B1 VL with A43T, L44P
B16: VH1 VL3_L42Gly+L44Leu (antibody, V domains shown)
VH: B1 VH with F41H
VL: B1 VL with K42G
B17: VH1_H43Ser VL3 (antibody, V domains shown)
VH: B1 VH with F41H, K44S
VL: B1 VL with L44P
B18: VH1 VL3_L42Gly (antibody, V domains shown)
VH: B1 VH with F41H
VL: B1 VL with K42G, L44P

The first experiment deals with T1, human S100A4 protein (human, UniProt P26447 1-101).
T1 construct: also called S100A4 (human)
T1 sequence (P26447 whole entry, one chain of several): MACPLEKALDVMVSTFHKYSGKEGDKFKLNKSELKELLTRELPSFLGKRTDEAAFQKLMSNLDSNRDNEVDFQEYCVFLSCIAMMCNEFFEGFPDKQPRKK
The experiment is described as follows: Western blot.
Take B1: the binding result is “binds”.

The target in a further experiment is T2, human FcγRIIa-H (the high-affinity H131 variant) on Jurkat reporter cells (human, UniProt P12318 34-317).
T2 sequence (looked up): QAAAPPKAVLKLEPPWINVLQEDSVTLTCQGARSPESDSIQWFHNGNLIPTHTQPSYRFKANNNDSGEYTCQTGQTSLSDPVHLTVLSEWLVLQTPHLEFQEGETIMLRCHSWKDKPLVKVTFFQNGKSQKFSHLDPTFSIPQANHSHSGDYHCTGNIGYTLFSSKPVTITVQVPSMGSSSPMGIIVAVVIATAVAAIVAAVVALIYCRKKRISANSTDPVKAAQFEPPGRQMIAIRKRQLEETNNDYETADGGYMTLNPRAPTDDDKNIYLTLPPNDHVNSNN
Briefly: cell-based or functional assay.
In the case of B2, the “FcγRIIa-H ADCP reporter; fold higher activation than AX-202 hIgG4, immune complex with S100A4 dimer” value stood at 3.23 fold and the “FcγRIIa-H ADCP reporter; fold higher activation than AX-202 hIgG4, immune complex with S100A4 multimer” value is 2.87 fold.

Turning to B3, the “FcγRIIa-H ADCP reporter; potency to induce FcγR activation against the same antibody with a human IgG1 scaffold” value was about 3 fold lower.

The target of another experiment is A6 (lane under "Human S100 Proteins") (Homo sapiens, UniProt P06703). The experiment is described as follows: Western blot on human S100 proteins.
As to B1, the binding result is on record as “no binding”.

Take B4: the binding result was “no binding”.

B5: the binding result was “no binding”.

In another experiment the target is T3, A8 (lane under "Human S100 Proteins").
T3 construct: also called human S100A8
T3 chain: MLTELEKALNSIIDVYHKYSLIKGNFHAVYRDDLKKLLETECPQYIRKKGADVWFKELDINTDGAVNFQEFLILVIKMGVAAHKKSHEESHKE
Briefly: Western blot on human S100 proteins.
For B1, the binding result is on record as “no binding”.

For the molecule B4, the binding result is on record as “no binding”.

Take B5: the binding result is on record as “no binding”.

For a further experiment, the target named is T4, human S100A4 dimer (Homo sapiens, UniProt P26447 1-101).
T4 construct: In the SPR it was captured on an anti-His surface, so it carried a His tag; also called recombinant human S100A4 dimer
T4 sequence (P26447 whole entry, one chain of several): as the sequence (P26447 whole entry, one chain of several) above
Briefly: SPR, Biacore T200, 25 C; S100A4 captured via anti-His, antibody as analyte (0.78-200 nM), 1:1 fit. Here is the method:
Quantitative, kinetic analysis of the interactions between 14 humanized antibodies and 2 control antibodies with the human S100A4 dimer were performed using surface plasmon resonance (SPR).
The analysis was performed using a Biacore T200 instrument, at 25° C. analysis temperature, at a flow rate of 50 μl/min for quantitative kinetic interaction analyses.
B2 yielded a Kd of 1.65 nM, a koff of 0.000206 s⁻¹ and an on-rate (kon) of 124000 M⁻¹ s⁻¹.

Molecule B6 came in with a Kd of 1.46 nM, a koff of 0.000279 s⁻¹ and an association rate constant (kon) of 191000 M⁻¹ s⁻¹.

In turn, B7 gave a dissociation constant Kd of 0.958 nM, a koff of 0.000219 s⁻¹ and a kon of 229000 M⁻¹ s⁻¹.

Consider B8, for which the Kd was found to be 1.15 nM, the koff worked out at 0.000361 s⁻¹ and the association rate constant (kon) turned out to be 313000 M⁻¹ s⁻¹.

Molecule B9 displayed a Kd of 3.47 nM, an off-rate constant (koff) of 0.000674 s⁻¹ and a kon of 194000 M⁻¹ s⁻¹.

In turn, B10 had a Kd of 2.38 nM, a koff of 0.000512 s⁻¹ and a kon of 215000 M⁻¹ s⁻¹.

Turning to B11, the Kd was 2.15 nM, the koff came to 0.000507 s⁻¹ and the kon came out at 236000 M⁻¹ s⁻¹.

Molecule B12 returned a Kd of 2.43 nM, a koff of 0.00056 s⁻¹ and a kon of 231000 M⁻¹ s⁻¹.

The molecule B13 showed a Kd of 2.77 nM, a dissociation rate constant (koff) of 0.000592 s⁻¹ and a kon of 213000 M⁻¹ s⁻¹.

The molecule B14 gave a Kd of 2.84 nM, a koff of 0.000596 s⁻¹ and an association rate constant (kon) of 210000 M⁻¹ s⁻¹.

Turning to B4, binding was put at a Kd of 2.25 nM, the koff is 0.000537 s⁻¹ and the kon was determined as 239000 M⁻¹ s⁻¹.

The molecule B15 registered a Kd of 4.72 nM, a koff of 0.000882 s⁻¹ and a kon of 187000 M⁻¹ s⁻¹.

On to B16, for which the affinity, expressed as Kd, was 1.99 nM; the koff is 0.000523 s⁻¹; the kon was found to be 263000 M⁻¹ s⁻¹.

For the molecule B5, binding was characterised by a dissociation constant (Kd) of 2.65 nM, the koff was determined as 0.000576 s⁻¹ and the kon turned out to be 217000 M⁻¹ s⁻¹.

The molecule B17 returned a Kd of 3.21 nM, a koff of 0.000679 s⁻¹ and a kon of 211000 M⁻¹ s⁻¹.

Consider B18, for which the affinity, expressed as Kd, was 3 nM; the koff stood at 0.00064 s⁻¹; the kon worked out at 213000 M⁻¹ s⁻¹.

For the origin of these results see US20240043521A1 (ARXX THERAPEUTICS, published 2024).
